Changes are numbered by the printed parent chain. In names and notes the source's numbering stands.
B1: XPA23 Fab, heavy chain V50N (Fab, V domains shown)
VH: EVQLLESGGGLVQPGGSLRLSCAASGFTFSKYFMFWVRQAPGKGLEWVSNISPSGGMTRYADSVKGRFTISRDNSKNTLYLQMNSLRAEDTAVYYCARVGYGGNSDYWGQGTLVTVSS
VL: DIQMTQSPSSVSASVGDRLTIICRASQDINRWLAWYQQTPGNAPKLLIHSATSLQSGVPSRFSGSGSGTDFTLTINSLQPEDFATYYCQQADSFPLTFGGGTKVEIK
B2: XPA23 Fab, heavy chain G56N (Fab, V domains shown)
VH: B1 VH with N50V, G56N
VL: B1 VL
B3: XPA23 Fab, heavy chain D106E (Fab, V domains shown)
VH: B1 VH with N50V, D106E
VL: B1 VL
B4: XPA23 Fab, heavy chain F35N (Fab, V domains shown)
VH: B1 VH with F35N, N50V
VL: B1 VL
B5: XPA23 Fab, heavy chain G56H (Fab, V domains shown)
VH: B1 VH with N50V, G56H
VL: B1 VL
B6: XPA23 Fab, heavy chain G56F (Fab, V domains shown)
VH: B1 VH with N50V, G56F
VL: B1 VL
B7: XPA23 Fab, heavy chain F33K (Fab, V domains shown)
VH: B1 VH with F33K, N50V
VL: B1 VL
B8: XPA23 Fab, heavy chain F33E (Fab, V domains shown)
VH: B1 VH with F33E, N50V
VL: B1 VL
B9: XPA23 Fab, heavy chain G56E (Fab, V domains shown)
VH: B1 VH with N50V, G56E
VL: B1 VL
B10: XPA23 Fab, heavy chain G55Y (Fab, V domains shown)
VH: B1 VH with N50V, G55Y
VL: B1 VL
B11: XPA23 Fab, heavy chain D106Y (Fab, V domains shown)
VH: B1 VH with N50V, D106Y
VL: B1 VL
B12: XPA23 Fab, heavy chain D106S (Fab, V domains shown)
VH: B1 VH with N50V, D106S
VL: B1 VL
B13: XPA23 Fab, heavy chain G55R (Fab, V domains shown)
VH: B1 VH with N50V, G55R
VL: B1 VL
B14: XPA23 Fab, heavy chain G55D (Fab, V domains shown)
VH: B1 VH with N50V, G55D
VL: B1 VL
B15: XPA23 Fab, heavy chain F33Q (Fab, V domains shown)
VH: B1 VH with F33Q, N50V
VL: B1 VL
B16: XPA23 Fab, heavy chain G56K (Fab, V domains shown)
VH: B1 VH with N50V, G56K
VL: B1 VL
B17: XPA23 Fab, heavy chain D106K (Fab, V domains shown)
VH: B1 VH with N50V, D106K
VL: B1 VL
B18: XPA23 Fab, heavy chain D106W (Fab, V domains shown)
VH: B1 VH with N50V, D106W
VL: B1 VL
B19: XPA23 Fab, heavy chain G55Q (Fab, V domains shown)
VH: B1 VH with N50V, G55Q
VL: B1 VL
B20: XPA23 Fab, heavy chain F35E (Fab, V domains shown)
VH: B1 VH with F35E, N50V
VL: B1 VL
B21: XPA23 Fab, heavy chain F33R (Fab, V domains shown)
VH: B1 VH with F33R, N50V
VL: B1 VL
B22: XPA23 Fab, heavy chain F35W (Fab, V domains shown)
VH: B1 VH with F35W, N50V
VL: B1 VL
B23: XPA23 Fab, heavy chain D106R (Fab, V domains shown)
VH: B1 VH with N50V, D106R
VL: B1 VL
B24: XPA23 Fab, heavy chain F35D (Fab, V domains shown)
VH: B1 VH with F35D, N50V
VL: B1 VL
B25: XPA23 Fab, heavy chain F35R (Fab, V domains shown)
VH: B1 VH with F35R, N50V
VL: B1 VL
B26: XPA23 Fab, heavy chain G55N (Fab, V domains shown)
VH: B1 VH with N50V, G55N
VL: B1 VL
B27: XPA23 Fab, heavy chain F35Y (Fab, V domains shown)
VH: B1 VH with F35Y, N50V
VL: B1 VL
B28: XPA23 Fab, heavy chain F33N (Fab, V domains shown)
VH: B1 VH with F33N, N50V
VL: B1 VL
B29: XPA23 Fab, heavy chain F35H (Fab, V domains shown)
VH: B1 VH with F35H, N50V
VL: B1 VL
B30: XPA23 Fab, heavy chain G55K (Fab, V domains shown)
VH: B1 VH with N50V, G55K
VL: B1 VL
B31: XPA23 Fab, heavy chain G56D (Fab, V domains shown)
VH: B1 VH with N50V, G56D
VL: B1 VL
B32: XPA23 Fab, heavy chain D106F (Fab, V domains shown)
VH: B1 VH with N50V, D106F
VL: B1 VL
B33: XPA23 Fab, heavy chain F35K (Fab, V domains shown)
VH: B1 VH with F35K, N50V
VL: B1 VL
B34: XPA23 Fab, heavy chain F33D (Fab, V domains shown)
VH: B1 VH with F33D, N50V
VL: B1 VL
B35: XPA23 Fab, heavy chain D106H (Fab, V domains shown)
VH: B1 VH with N50V, D106H
VL: B1 VL
B36: XPA23 Fab, heavy chain D106N (Fab, V domains shown)
VH: B1 VH with N50V, D106N
VL: B1 VL
B37: XPA23 Fab, heavy chain G55E (Fab, V domains shown)
VH: B1 VH with N50V, G55E
VL: B1 VL
B38: XPA23 Fab, heavy chain F33Y (Fab, V domains shown)
VH: B1 VH with F33Y, N50V
VL: B1 VL
B39: XPA23 Fab, heavy chain D106Q (Fab, V domains shown)
VH: B1 VH with N50V, D106Q
VL: B1 VL
B40: XPA23 Fab, heavy chain F33W (Fab, V domains shown)
VH: B1 VH with F33W, N50V
VL: B1 VL
B41: XPA23 Fab, heavy chain G55S (Fab, V domains shown)
VH: B1 VH with N50V, G55S
VL: B1 VL
B42: XPA23 Fab, heavy chain F33S (Fab, V domains shown)
VH: B1 VH with F33S, N50V
VL: B1 VL
B43: XPA23 Fab, heavy chain G56Q (Fab, V domains shown)
VH: B1 VH with N50V, G56Q
VL: B1 VL
B44: XPA23 Fab, heavy chain F35Q (Fab, V domains shown)
VH: B1 VH with F35Q, N50V
VL: B1 VL
B45: XPA23 Fab, heavy chain F35S (Fab, V domains shown)
VH: B1 VH with F35S, N50V
VL: B1 VL
B46: XPA23 Fab, heavy chain F33H (Fab, V domains shown)
VH: B1 VH with F33H, N50V
VL: B1 VL

Target: T1, IL-1beta (UniProt P01584 117-269)
T1 construct: also called IL-1β
Assay: Biacore

| Binder | fold difference in affinity vs parental | binding result |
| --- | --- | --- |
| B1 | 0.03 fold | – |
| B2 | 1.06 fold | – |
| B3 | 0.04 fold | – |
| B4 | 0.86 fold | – |
| B5 | 0.82 fold | – |
| B6 | 1.41 fold | – |
| B7 | 0.85 fold | – |
| B8 | 0.86 fold | – |
| B9 | 1.21 fold | – |
| B10 | 0.08 fold | – |
| B11 | – | no binding |
| B12 | 0.03 fold | – |
| B13 | 0.95 fold | – |
| B14 | – | no binding |
| B15 | 0.78 fold | – |
| B16 | 2.05 fold | – |
| B17 | 0.04 fold | – |
| B18 | – | no binding |
| B19 | 0.9 fold | – |
| B20 | – | no binding |
| B21 | – | no binding |
| B22 | – | no binding |
| B23 | 0.06 fold | – |

| Binder | fold difference in affinity vs parental | binding result |
| --- | --- | --- |
| B24 | 0.06 fold | – |
| B25 | – | no binding |
| B26 | 0.1 fold | – |
| B27 | 0.85 fold | – |
| B28 | 0.97 fold | – |
| B29 | – | no binding |
| B30 | 0.11 fold | – |
| B31 | 0.05 fold | – |
| B32 | – | no binding |
| B33 | 0.68 fold | – |
| B34 | 0.92 fold | – |
| B35 | 0.02 fold | – |
| B36 | 0.07 fold | – |
| B37 | 0.11 fold | – |
| B38 | 0.77 fold | – |
| B39 | 0.02 fold | – |
| B40 | 0.79 fold | – |
| B41 | 1.02 fold | – |
| B42 | 0.73 fold | – |
| B43 | 1.31 fold | – |
| B44 | – | no binding |
| B45 | 0.09 fold | – |
| B46 | – | no binding |

Reference: patent US20110118131A1 (published 2011)
